Results published in the RNAGym collection of RNA variant scans (doi:10.7554/elife.90254).

B1: LINE1-full (parent)
chain: UACGUAGGUGGUUUUCCCCUGAUAGUGCUAAGGGGGCCUGGAAGUUUGGACUGGGCAGAGCUCAACACAGCGUGGCAAAGUGGCUGUGGCUAGACUGCCUCUCUGGAUUCCUCGUCACUCAGCAGGGCAUCUCUGAGAGAAAUGCC

Variants of: B1
Assay: self-cleavage, relative activity (ratio to wild type); higher = more cleavage; in vitro, sequencing; the parent is a self-cleaving ribozyme

Variant | self-cleavage
UACGUAGGUGGUUUUCCCCUAAUAGUGCUAAGGGGGCAUGGAAGUUUGGACUGGGCAGAGCUCAACACAGCGUGGCAAAGUGGCUGUGGCUAGACUGCCUCUCUGGAUUCCUCGUCACUCAGCAGGGCAUCUCUGAGAGAAAUGCC [G21A C38A] | 1.07
UACGUGGGUGGUUCUCCCCUGAUAGUGCUAAGGGGGCCUGGAAGUUUGGACUGGGCAGAGCUCAACACAGCGUGGCAAAGUGGCUGUGGCUAGACUGCCUCUCUGGAUUCCUCGUCACUCAGCAGGGCAUCUCUGAGAGAAAUGCC [A6G U14C] | 0.61
UACGUAGGUGGUUUUCCCCUGAUAGUGCUAAGGGGGCCUGGAGGUUUGGACUGGGCAGAGCUCAACACAGCGUGGCAAAGUGGCCGUGGCUAGACUGCCUCUCUGGAUUCCUCGUCACUCAGCAGGGCAUCUCUGAGAGAAAUGCC [A43G U85C] | 0.2
UACGUAGGUGGUUUUCCCCCGAUAGUGCUAAGGGGGCCUGGAAGUUUGGACUGGGCAGAGCUCAACACAGCGUGGCAAAGUGGCUGUGGCUAGACUGCCUCUCUGGAUUCCUUGUCACUCAGCAGGGCAUCUCUGAGAGAAAUGCC [U20C C113U] | 1.62
UACGUAGGUGGGCUUCCCCUGAUAGUGCUAAGGGGGCCUGGAAGUUUGGACUGGGCAGAGCUCAACACAGCGUGGCAAAGUGGCUGUGGCUAGACUGCCUCUCUGGAUUCCUCGUCACUCAGCAGGGCAUCUCUGAGAGAAAUGCC [U12G U13C] | 0.95
UACGUAGGUGGUUUUCCCCUGAUAGUGCUAAGGGGGCCUGGAAGUUUGGACUGGGCAGAGCUCAACACAGCGUGGCAGAGUGGCUGUGGCUAGACUGCCUCUCUGGAUUCCUCGUCACUCAACAGGGCAUCUCUGAGAGAAAUGCC [A78G G122A] | 0.65
UACGUAGGUGGUUUUCCCCUGAUAGUGCUAAGGGAGCCUGGAAGUUUGGACUGGGCAGAGCUCAACACAGCGUGGCAGAGUGGCUGUGGCUAGACUGCCUCUCUGGAUUCCUCGUCACUCAGCAGGGCAUCUCUGAGAGAAAUGCC [G35A A78G] | 0.9
UACGUAGGUGGUUUUCCCCUGAUAGUGCUAAGGGGGCCUGGAAGUUCGGACUGGGCAGAGCUCAACACAGCGUGGCAAAGUGGCUGUGGCUAGACUGCCUCUCUGGAUUCCUCGUCACUCAGCAGGCCAUCUCUGAGAGAAAUGCC [U47C G127C] | 1.23
UACGUAGGUGGUUUUCCCCUGAUAGUGCUAAGGGGGCCUGGAAGUUUGGACAGGGCAGGGCUCAACACAGCGUGGCAAAGUGGCUGUGGCUAGACUGCCUCUCUGGAUUCCUCGUCACUCAGCAGGGCAUCUCUGAGAGAAAUGCC [U52A A59G] | 0.03
UACGUAGGUGGUUUUCCCCUGAUAGUGCUAAGGGGGCCUGGAAGUUUGGACUGGGUAGAGCUCAACACAGCGUGGCAAAGUGGCUGUGGCUAGACUGCCUCUCUGGAUUCCUCGUCACUCAGCAGGGCAUCUCGGAGAGAAAUGCC [C56U U134G] | 0.28
UACGUAGGUGGUUUUCCCCUGAUAGUGCUAAGGGGGCCUGGAAGUUUGGACUGGGCAGAGCUCAACACAGCGUGGCAAAGUGGCUGUGGCUAGACUGCCUCUCUGGAUUCCUCGUCCCUCAGCAGGGCAUCUCUGAGAGAAAAGCC [A117C U143A] | 1.38
UACGUAGGUGGUUUUCCCCUGAUAGUGCUAUGGGGGCCUGGAAGUUUGGACUGGGCAGAGCUCAACACAGCGUGGCAAAGUGGCUGUGGCUAGACUGCCUCUCUGGGUUCCUCGUCACUCAGCAGGGCAUCUCUGAGAGAAAUGCC [A31U A107G] | 1.28
UACGUAGGUGGUUUUCCCCUGAUAGUGCUAAGGGGGCCUGGAAGUUUGGACUGGGCAGAGCUCAACACAGCGUGGCAAAGUGGCUGUGGCUAGACUGCCUCUCUGGAUUCCUCGUCACGCAGCAGGGCAUCUCUGAGAGAAAAGCC [U119G U143A] | 0.95
UACGUAGGUGGUUUUCCCCUGAUAGUGUUAAGGGGGCCUGGAAGGUUGGACUGGGCAGAGCUCAACACAGCGUGGCAAAGUGGCUGUGGCUAGACUGCCUCUCUGGAUUCCUCGUCACUCAGCAGGGCAUCUCUGAGAGAAAUGCC [C28U U45G] | 1.09
UACGUAGGUGGUUUUCCCCUGAUAGUGCUAAGGGGGCCUGGAAGUUUGGACUGGGCAGAGCUCAACCCAGCGUGGCAAAGUGGCUGUGGCUAGACUGCCUCUCUGGAUUCCUCGUCACCCAGCAGGGCAUCUCUGAGAGAAAUGCC [A67C U119C] | 0.09
UACGUAGGUGGUUUUCCCCUGAUAGUGCUAAGGGGGCCUGGAAGUUUGGACUGGGCAGAGCUCAACACAGCGUGGCAUAGUGGCUGUGGCUAGUCUGCCUCUCUGGAUUCCUCGUCACUCAGCAGGGCAUCUCUGAGAGAAAUGCC [A78U A94U] | 0.3
UGCGUAGGUGGUUUUCCCCUGAUAGUGCUAAGGGGGCCUGGAAGUUUGGACUGGGCAGAGCUCAACACAGCGUGGCAAAGUGGAUGUGGCUAGACUGCCUCUCUGGAUUCCUCGUCACUCAGCAGGGCAUCUCUGAGAGAAAUGCC [A2G C84A] | 0.26
UACGUAGGUGGUUUUCCCCUGAUAGUGCUAAGGGGGCCUGGUAGUUUGGACUGGGCAGAGCUCAACACAGCGUGGCAAAGCGGCUGUGGCUAGACUGCCUCUCUGGAUUCCUCGUCACUCAGCAGGGCAUCUCUGAGAGAAAUGCC [A42U U81C] | 1.28
UACGUAGGUGGUUUUCCCCUGAUAGUGCUGAGGGGGCCUGGAAGUUUGGGCUGGGCAGAGCUCAACACAGCGUGGCAAAGUGGCUGUGGCUAGACUGCCUCUCUGGAUUCCUCGUCACUCAGCAGGGCAUCUCUGAGAGAAAUGCC [A30G A50G] | 0.64
UACGUAGGUGGUUUUCCCCUGAUAGUGCUAAGGGGGCCUGGAAGUUUGGACUGGGCAGAGCUCAACACAGCGUGGCAAAGUGGCUGUGACUAGACUGCCUCUCUGGAUUCCUCGUCACUCAGCAGGGCAUCUCUGAGUGAAAUGCC [G89A A138U] | 0.05
